# Reference: publication PMC10397247
# B1: O11-bP (peptide)
# chain: DKIKQLKQEIQRLEQENQRLEWENQKLEQ
# B2: 4H2134-bH (peptide)
# chain: DKIQELEKEIEELKRENWELEKKIQELKR
# B3: P12 (peptide)
# chain: KNAQLKEKIAALKEKIQQLKEENQALEYG
# Columns and labels:
# O2-bP = molecular target: T1, O2-bP; assay: two-hybrid library CCNG1;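 note: natural log of median RNA to DNA barcode read ratio; higher means stronger binding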
# T1 chain: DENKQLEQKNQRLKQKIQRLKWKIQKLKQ
# O13-bP = molecular target: T2, O13-bP; assay: two-hybrid library CCNG1;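 note: natural log of median RNA to DNA barcode read ratio; higher means stronger binding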
# T2 chain: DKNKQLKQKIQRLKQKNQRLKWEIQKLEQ
# O14-bP = molecular target: T3, O14-bP; assay: two-hybrid library CCNG1;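 note: natural log of median RNA to DNA barcode read ratio; higher means stronger binding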
# T3 chain: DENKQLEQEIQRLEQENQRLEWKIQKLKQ
# O9-bP = molecular target: T4, O9-bP; assay: two-hybrid library CCNG1;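 note: natural log of median RNA to DNA barcode read ratio; higher means stronger binding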
# T4 chain: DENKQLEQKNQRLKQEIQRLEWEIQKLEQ
# O15-bP = molecular target: T5, O15-bP; assay: two-hybrid library CCNG1;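 note: natural log of median RNA to DNA barcode read ratio; higher means stronger binding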
# T5 chain: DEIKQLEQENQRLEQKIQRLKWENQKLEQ
# O4-bP = molecular target: T6, O4-bP; assay: two-hybrid library CCNG1;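 note: natural log of median RNA to DNA barcode read ratio; higher means stronger binding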
# T6 chain: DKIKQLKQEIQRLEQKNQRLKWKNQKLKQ
# O7-bP = molecular target: T7, O7-bP; assay: two-hybrid library CCNG1
# T7 chain: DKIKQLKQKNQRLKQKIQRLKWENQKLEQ
# O12-bP = molecular target: T8, O12-bP; assay: two-hybrid library CCNG1
# T8 chain: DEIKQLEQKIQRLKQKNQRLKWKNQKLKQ
# O5-bP = molecular target: T9, O5-bP; assay: two-hybrid library CCNG1
# T9 chain: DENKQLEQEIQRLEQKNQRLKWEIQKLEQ
# O6-bP = molecular target: T10, O6-bP; assay: two-hybrid library CCNG1
# T10 chain: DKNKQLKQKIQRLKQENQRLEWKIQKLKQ
# O11-bP = molecular target: T11, O11-bP; assay: two-hybrid library CCNG1
# T11 chain: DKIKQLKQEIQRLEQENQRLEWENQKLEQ
# O16-bP = molecular target: T12, O16-bP; assay: two-hybrid library CCNG1
# T12 chain: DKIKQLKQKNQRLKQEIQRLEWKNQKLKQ
# O3-bP = molecular target: T13, O3-bP; assay: two-hybrid library CCNG1
# T13 chain: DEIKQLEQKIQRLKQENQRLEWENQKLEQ
# O8-bP = molecular target: T14, O8-bP; assay: two-hybrid library CCNG1
# T14 chain: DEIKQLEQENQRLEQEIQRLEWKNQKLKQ
# 4H40-bH = molecular target: T15, 4H40-bH; assay: two-hybrid library CCNG1
# T15 chain: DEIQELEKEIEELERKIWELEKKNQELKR
# 4H3057-bH = molecular target: T16, 4H3057-bH; assay: two-hybrid library CCNG1
# T16 chain: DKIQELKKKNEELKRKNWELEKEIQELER
# 4H2692-bH = molecular target: T17, 4H2692-bH; assay: two-hybrid library CCNG1
# T17 chain: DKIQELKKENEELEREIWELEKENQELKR
# 4H2717-bH = molecular target: T18, 4H2717-bH; assay: two-hybrid library CCNG1
# T18 chain: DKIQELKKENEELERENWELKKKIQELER
# 4H2915-bH = molecular target: T19, 4H2915-bH; assay: two-hybrid library CCNG1
# T19 chain: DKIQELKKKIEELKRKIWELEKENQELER
# 4H3277-bH = molecular target: T20, 4H3277-bH; assay: two-hybrid library CCNG1
# T20 chain: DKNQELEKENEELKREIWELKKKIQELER
# 4H477-bH = molecular target: T21, 4H477-bH; assay: two-hybrid library CCNG1
# T21 chain: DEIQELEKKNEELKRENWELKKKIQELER
# 4H741-bH = molecular target: T22, 4H741-bH; assay: two-hybrid library CCNG1
# T22 chain: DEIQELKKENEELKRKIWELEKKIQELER
# 4H2438-bH = molecular target: T23, 4H2438-bH; assay: two-hybrid library CCNG1
# T23 chain: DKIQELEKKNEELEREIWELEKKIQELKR
# 4H2143-bH = molecular target: T24, 4H2143-bH; assay: two-hybrid library CCNG1
# T24 chain: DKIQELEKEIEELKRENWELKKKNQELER
# 4H2503-bH = molecular target: T25, 4H2503-bH; assay: two-hybrid library CCNG1
# T25 chain: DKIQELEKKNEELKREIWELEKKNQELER
# 4H2839-bH = molecular target: T26, 4H2839-bH; assay: two-hybrid library CCNG1
# T26 chain: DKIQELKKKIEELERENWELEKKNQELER
# 4H348-bH = molecular target: T27, 4H348-bH; assay: two-hybrid library CCNG1
# T27 chain: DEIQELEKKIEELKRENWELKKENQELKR
# 4H2473-bH = molecular target: T28, 4H2473-bH; assay: two-hybrid library CCNG1
# T28 chain: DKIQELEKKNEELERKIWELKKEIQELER
# 4H2588-bH = molecular target: T29, 4H2588-bH; assay: two-hybrid library CCNG1
# T29 chain: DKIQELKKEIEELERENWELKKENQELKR
# 4H3858-bN = molecular target: T30, 4H3858-bN; assay: two-hybrid library CCNG1
# T30 chain: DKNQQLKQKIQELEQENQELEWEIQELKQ
# 4H2223-bH = molecular target: T31, 4H2223-bH; assay: two-hybrid library CCNG1
# T31 chain: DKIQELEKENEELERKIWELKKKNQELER
# 4H2134-bH = molecular target: T32, 4H2134-bH; assay: two-hybrid library CCNG1
# T32 chain: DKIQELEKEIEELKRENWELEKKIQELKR
# 4H492-bH = molecular target: T33, 4H492-bH; assay: two-hybrid library CCNG1
# T33 chain: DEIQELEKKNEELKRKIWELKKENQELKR
# 4H319-bH = molecular target: T34, 4H319-bH; assay: two-hybrid library CCNG1
# T34 chain: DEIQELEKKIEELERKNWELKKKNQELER
# P3 = molecular target: T35, P3; assay: two-hybrid library CC1; conditions: mean of both orientations
# T35 chain: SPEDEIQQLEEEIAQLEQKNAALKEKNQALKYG
# P9 = molecular target: T36, P9; assay: two-hybrid library CC1; conditions: mean of both orientations
# T36 chain: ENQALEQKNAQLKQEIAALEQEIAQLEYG
# P7 = molecular target: T37, P7; assay: two-hybrid library CC1; conditions: mean of both orientations
# T37 chain: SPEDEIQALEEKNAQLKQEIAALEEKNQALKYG
# P6mS = molecular target: T38, P6mS; assay: two-hybrid library CC1; conditions: mean of both orientations
# T38 chain: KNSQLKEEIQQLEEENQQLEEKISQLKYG
# P8 = molecular target: T39, P8; assay: two-hybrid library CC1; conditions: mean of both orientations
# T39 chain: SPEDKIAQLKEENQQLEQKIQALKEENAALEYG
# P7mS = molecular target: T40, P7mS; assay: two-hybrid library CC1; conditions: mean of both orientations
# T40 chain: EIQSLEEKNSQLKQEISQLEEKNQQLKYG
# P5SC2 = molecular target: T41, P5SC2; assay: two-hybrid library CC1; conditions: mean of both orientations
# T41 chain: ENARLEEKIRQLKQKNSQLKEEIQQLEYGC
# P12 = molecular target: T42, P12; assay: two-hybrid library CC1
# T42 chain: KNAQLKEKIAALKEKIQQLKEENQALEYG
# P6SC1 = molecular target: T43, P6SC1; assay: two-hybrid library CC1; conditions: mean of both orientations
# T43 chain: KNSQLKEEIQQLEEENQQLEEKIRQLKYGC
# P3mS = molecular target: T44, P3mS; assay: two-hybrid library CC1; conditions: mean of both orientations
# T44 chain: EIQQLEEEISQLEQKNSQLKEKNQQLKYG
# P6 = molecular target: T45, P6; assay: two-hybrid library CC1; conditions: mean of both orientations
# T45 chain: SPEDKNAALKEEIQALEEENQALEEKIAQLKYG
# P4 = molecular target: T46, P4; assay: two-hybrid library CC1; conditions: mean of both orientations
# T46 chain: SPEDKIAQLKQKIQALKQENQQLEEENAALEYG
# P5SC1 = molecular target: T47, P5SC1; assay: two-hybrid library CC1; conditions: mean of both orientations
# T47 chain: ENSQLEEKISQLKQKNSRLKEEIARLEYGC
# P5mS = molecular target: T48, P5mS; assay: two-hybrid library CC1; conditions: mean of both orientations
# T48 chain: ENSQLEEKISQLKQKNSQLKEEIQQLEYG
# P4mS = molecular target: T49, P4mS; assay: two-hybrid library CC1; conditions: mean of both orientations
# T49 chain: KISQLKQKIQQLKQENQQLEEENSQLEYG
# P5 = molecular target: T50, P5; assay: two-hybrid library CC1; conditions: mean of both orientations
# T50 chain: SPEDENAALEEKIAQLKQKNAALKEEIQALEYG
# P6SC2 = molecular target: T51, P6SC2; assay: two-hybrid library CC1; conditions: mean of both orientations
# T51 chain: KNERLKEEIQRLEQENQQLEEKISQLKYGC
# P8mS = molecular target: T52, P8mS; assay: two-hybrid library CC1; conditions: mean of both orientations
# T52 chain: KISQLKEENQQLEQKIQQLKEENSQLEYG
binder,measurement,setting,value
B1,interaction score,O2-bP,-1.44
same,interaction score,O13-bP,-1.07
same,interaction score,O14-bP,-0.129
same,interaction score,O9-bP,-0.645
same,interaction score,O15-bP,-0.41
same,interaction score,O4-bP,0.69
same,interaction score,O7-bP,-1.03
same,interaction score,O12-bP,0.837
same,interaction score,O5-bP,-0.395
same,interaction score,O6-bP,-0.577
same,interaction score,O11-bP,-0.79
same,interaction score,O16-bP,-1.05
same,interaction score,O3-bP,0.514
same,interaction score,O8-bP,-0.376
B2,interaction score,4H40-bH,-0.995
same,interaction score,4H3057-bH,1.45
same,interaction score,4H2692-bH,0.18
same,interaction score,4H2717-bH,1.07
same,interaction score,4H2915-bH,1.56
same,interaction score,4H3277-bH,-0.74
same,interaction score,4H477-bH,1.08
same,interaction score,4H741-bH,0.37
same,interaction score,4H2438-bH,0.0398
same,interaction score,4H2143-bH,0.0686
same,interaction score,4H2503-bH,1.45
same,interaction score,4H2839-bH,0.785
same,interaction score,4H348-bH,-0.551
same,interaction score,4H2473-bH,0.459
same,interaction score,4H2588-bH,1.01
same,interaction score,4H3858-bN,0.573
same,interaction score,4H2223-bH,-0.653
same,interaction score,4H2134-bH,0.746
same,interaction score,4H492-bH,0.362
same,interaction score,4H319-bH,0.925
B3,interaction score,P3,0.183
same,interaction score,P9,-1.37
same,interaction score,P7,-2.41
same,interaction score,P6mS,-2.73
same,interaction score,P8,-2.9
same,interaction score,P7mS,-2.85
same,interaction score,P5SC2,-2.9
same,interaction score,P12,-2.73
same,interaction score,P6SC1,-2.44
same,interaction score,P3mS,-0.884
same,interaction score,P6,-2.42
same,interaction score,P4,-2.97
same,interaction score,P5SC1,-2.96
same,interaction score,P5mS,-2.78
same,interaction score,P4mS,-2.91
same,interaction score,P5,-2.87
same,interaction score,P6SC2,-2.47
same,interaction score,P8mS,-2.85
